Data: publication PMC9138599, “Clade-Specific Alterations within the HIV-1 Capsid Protein with Implications for Nuclear Translocation” (Biomolecules, 2022)
Where “and” joins values, the source holds several entries; their conditions need not be identical. Identical values can stand only once.

Columns and labels:
[1] = molecular target: HIV-1 CA hexamer from clade B (isolate NL4-3) (HIV-1 isolate NL4-3 (clade B)); assay: cross-linking
[2] = molecular target: HIV-1 CA hexamer from clade D (isolate 94UG114.1) (HIV-1 isolate 94UG114.1 (clade D)); assay: cross-linking
[3] = molecular target: NUP-153 RRR patch (Homo sapiens) (UniProt P49790); conditions: cited from earlier work
[4] = molecular target: HIV-1 CA hexamer from clade C (isolate 92BR025.8) (HIV-1 isolate 92BR025.8 (clade C)); assay: cross-linking
[5] = molecular target: HIV-1 CA hexamer from clade A1 (isolate 92UG037.1) (HIV-1 isolate 92UG037.1 (clade A1)); assay: cross-linking
[6] = molecular target: HIV-1 CA hexamer from clade A2 (isolate CDKTB48) (HIV-1 isolate CDKTB48 (clade A2)); assay: SPR; CA hexamer amine-coupled to a ProteOn GLH chip, peptide injected as analyte; 25 °C; 1x PBS pH 7.4, 3% DMSO, 0.005% polysorbate 20; reference surface IgG b12; 1:1 binding model; KD from a Langmuir isotherm equilibrium fit and from a global kinetic fit; triplicate
[7] = molecular target: HIV-1 CA hexamer from clade C (isolate 92BR025.8) (HIV-1 isolate 92BR025.8 (clade C)); assay: as above
[8] = molecular target: HIV-1 CA hexamer from clade D (isolate 94UG114.1) (HIV-1 isolate 94UG114.1 (clade D)); assay: as above
[9] = molecular target: HIV-1 CA hexamer from clade A2 (isolate CDKTB48) (HIV-1 isolate CDKTB48 (clade A2)); assay: cross-linking

Substance: HIV-1 CA hexamer from clade B (isolate NL4-3) (natural protein)
- stoichiometry N [1]: 6

Substance: HIV-1 CA hexamer from clade D (isolate 94UG114.1) (natural protein)
- stoichiometry N [2]: 6

Substance: CA (from UniProt O93215)
- Kd [3]: 0.8 µM

Substance: HIV-1 CA hexamer from clade C (isolate 92BR025.8) (natural protein)
- stoichiometry N [4]: 6

Substance: HIV-1 CA hexamer from clade A1 (isolate 92UG037.1) (natural protein)
- stoichiometry N [5]: 6

Substance: NUP-153 peptide (1407-…-1423)
- Kd [6]: 443 µM and 746 µM
- Kd [7]: 503 µM and 881 µM
- Kd [8]: 309 µM and 368 µM

Substance: HIV-1 CA hexamer from clade A2 (isolate CDKTB48) (natural protein)
- stoichiometry N [9]: 6
